Test results as given in publication PMC8364239 (The Plant Cell, 2021).
Numbering of substitutions follows the chain as printed. Numbers in names are those of the source.

T1: His6-tagged SEC5B (Arabidopsis thaliana, UniProt F4HWE6 1-1090)
T1 sequence: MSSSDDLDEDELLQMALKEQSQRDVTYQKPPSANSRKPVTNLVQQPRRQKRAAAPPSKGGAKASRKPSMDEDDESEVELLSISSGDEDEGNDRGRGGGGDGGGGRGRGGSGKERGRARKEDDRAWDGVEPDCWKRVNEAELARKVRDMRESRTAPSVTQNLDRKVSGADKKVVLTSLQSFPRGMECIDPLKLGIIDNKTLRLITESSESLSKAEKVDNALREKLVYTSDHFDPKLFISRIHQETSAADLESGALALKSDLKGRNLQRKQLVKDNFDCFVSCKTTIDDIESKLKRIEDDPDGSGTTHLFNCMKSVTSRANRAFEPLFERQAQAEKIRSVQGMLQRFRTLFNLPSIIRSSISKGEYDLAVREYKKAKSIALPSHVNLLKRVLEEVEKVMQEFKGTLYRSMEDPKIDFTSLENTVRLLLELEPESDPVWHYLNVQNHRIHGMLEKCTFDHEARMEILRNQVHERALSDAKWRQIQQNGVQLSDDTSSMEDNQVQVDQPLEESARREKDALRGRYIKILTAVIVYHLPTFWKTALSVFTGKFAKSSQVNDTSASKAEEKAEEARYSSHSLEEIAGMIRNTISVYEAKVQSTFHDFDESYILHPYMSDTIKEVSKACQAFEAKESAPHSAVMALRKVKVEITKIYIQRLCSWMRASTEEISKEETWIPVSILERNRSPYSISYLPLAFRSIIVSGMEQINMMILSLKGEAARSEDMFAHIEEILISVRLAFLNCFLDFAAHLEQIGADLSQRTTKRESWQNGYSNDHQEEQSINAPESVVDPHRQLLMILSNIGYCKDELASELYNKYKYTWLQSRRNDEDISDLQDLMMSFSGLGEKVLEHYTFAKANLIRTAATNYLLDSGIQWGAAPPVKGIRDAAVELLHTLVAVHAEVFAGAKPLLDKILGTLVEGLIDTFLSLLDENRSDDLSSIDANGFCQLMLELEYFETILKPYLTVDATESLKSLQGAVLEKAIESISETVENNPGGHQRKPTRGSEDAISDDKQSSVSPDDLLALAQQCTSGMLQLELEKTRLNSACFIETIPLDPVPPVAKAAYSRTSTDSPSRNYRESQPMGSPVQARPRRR

T2: His6-tagged SEC15B (Arabidopsis thaliana, UniProt F4JHH5 1-787)
T2 sequence: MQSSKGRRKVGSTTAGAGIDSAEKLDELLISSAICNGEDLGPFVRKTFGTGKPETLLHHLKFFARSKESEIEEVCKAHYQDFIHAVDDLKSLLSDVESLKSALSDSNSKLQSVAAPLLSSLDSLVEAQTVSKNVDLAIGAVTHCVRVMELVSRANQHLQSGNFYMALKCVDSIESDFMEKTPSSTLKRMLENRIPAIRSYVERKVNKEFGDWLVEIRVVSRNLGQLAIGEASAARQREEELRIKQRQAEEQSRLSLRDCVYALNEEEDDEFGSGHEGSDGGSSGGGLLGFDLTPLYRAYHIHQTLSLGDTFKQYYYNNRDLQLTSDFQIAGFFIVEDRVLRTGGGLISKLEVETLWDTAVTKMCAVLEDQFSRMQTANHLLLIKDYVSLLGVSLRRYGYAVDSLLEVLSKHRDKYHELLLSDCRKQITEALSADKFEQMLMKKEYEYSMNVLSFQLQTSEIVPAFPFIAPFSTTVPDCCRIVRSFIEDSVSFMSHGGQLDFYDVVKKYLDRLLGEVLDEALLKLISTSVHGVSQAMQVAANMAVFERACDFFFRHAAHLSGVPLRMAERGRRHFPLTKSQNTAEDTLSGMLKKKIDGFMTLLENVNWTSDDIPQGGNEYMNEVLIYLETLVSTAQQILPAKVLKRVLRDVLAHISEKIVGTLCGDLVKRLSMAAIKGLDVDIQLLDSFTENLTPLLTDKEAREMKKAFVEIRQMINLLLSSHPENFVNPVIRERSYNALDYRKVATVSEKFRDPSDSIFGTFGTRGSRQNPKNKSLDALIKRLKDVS

B1: GST-tagged myosin XIK GTD (wild type) (domain or fragment)
chain: ISPTSRTMATRSKTMLLPRTPENGNYLNGGTKTTPDMTLAVREPESEEKPQKHLNEKQQENQDLLVKCISQNLGYNGDKPVAACVIYKCLLHWRSFEVERTSVFDRIIQTIATAIEVPDNNEVLAYWLSNSATLLLLLQRTLKATGAASLTPQRRRTTSASLFGRMSQGLRGSPQSAGLSFLNRQGLTKLDDLRQVEAKYPALLFKQQLTAFLEKIYGMIRDNLKKEISPLLGLCIQAPRTSRASLVKGRAQANAVAQQALIAHWQSIRKSLNSYLNLMKANNAPPFLVRKVFTQIFSFINVQLFNSLLLRRECCSFSNGEYVKAGLAELEQWCIEATDEYAGSAWDELRHIRQAVGFLVIHQKPKKTLDEITRELCPVLSIQQLYRISTMYWDDKYGTHSVSSDVIANMRVMMTEDSNNAVSSSFLLDDDSSIPFTVEDISKSMQQVDVNDIEPPQLIRENSGFGFLLTRKEGSTS
B2: GST-XIK GTD K1103A (domain or fragment)
chain: B1 chain with K49A

What was measured:
[1] = molecular target: T1, His6-tagged SEC5B; assay: pull-down
[2] = molecular target: T2, His6-tagged SEC15B; assay: pull-down

Binder	binding result [1]	binding result [2]
B1	binds	binds
B2	binds	–
